Results published in US20260317437 (published 2026).

target: GCGR extracellular domain (human, UniProt P47871); test: SPR
Sequence (P47871 26-477): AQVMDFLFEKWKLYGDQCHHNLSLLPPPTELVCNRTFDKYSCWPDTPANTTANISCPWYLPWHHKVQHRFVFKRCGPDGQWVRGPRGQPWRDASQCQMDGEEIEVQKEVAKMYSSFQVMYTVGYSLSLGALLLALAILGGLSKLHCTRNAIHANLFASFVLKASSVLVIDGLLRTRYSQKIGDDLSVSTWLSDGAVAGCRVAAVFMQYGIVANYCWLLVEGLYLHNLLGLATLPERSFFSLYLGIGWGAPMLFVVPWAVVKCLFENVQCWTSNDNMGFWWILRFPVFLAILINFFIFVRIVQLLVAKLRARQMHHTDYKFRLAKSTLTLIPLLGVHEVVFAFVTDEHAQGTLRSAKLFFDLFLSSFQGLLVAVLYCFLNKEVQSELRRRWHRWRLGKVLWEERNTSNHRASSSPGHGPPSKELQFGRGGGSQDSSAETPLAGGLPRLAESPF

Binder	Kd
VH Y30N (antibody, V domains shown) VH: EVQLVESGGGLVQPGGSLRLSCAASGFNINYNYIHWVRQAPGKGLEWVAEFSPYSGSTYYADSVKGRFTISADTSKNTAYLQMNSLRAEDTAVYYCARSAAIVDWYDYFKGFDYWGQGTLVTVSS VL: DIQMTQSPSSLSASVGDRVTITCRASQSVSSAVAWYQQKPGKAPKLLIYSASSLYSGVPSRFSGSRSGTDFTLTISSLQPEDFATYYCQQYGSYLYTFGQGTKVEIK	103 nM
VH S54R (antibody, V domains shown) VH: EVQLVESGGGLVQPGGSLRLSCAASGFNIYYNYIHWVRQAPGKGLEWVAEFSPYRGSTYYADSVKGRFTISADTSKNTAYLQMNSLRAEDTAVYYCARSAAIVDWYDYFKGFDYWGQGTLVTVSS VL: DIQMTQSPSSLSASVGDRVTITCRASQSVSSAVAWYQQKPGKAPKLLIYSASSLYSGVPSRFSGSRSGTDFTLTISSLQPEDFATYYCQQYGSYLYTFGQGTKVEIK	16 nM
VL Y91D (antibody, V domains shown) VH: EVQLVESGGGLVQPGGSLRLSCAASGFNIYYNYIHWVRQAPGKGLEWVAEFSPYSGSTYYADSVKGRFTISADTSKNTAYLQMNSLRAEDTAVYYCARSAAIVDWYDYFKGFDYWGQGTLVTVSS VL: DIQMTQSPSSLSASVGDRVTITCRASQSVSSAVAWYQQKPGKAPKLLIYSASSLYSGVPSRFSGSRSGTDFTLTISSLQPEDFATYYCQQDGSYLYTFGQGTKVEIK	7.08 nM
VL Y94N (antibody, V domains shown) VH: EVQLVESGGGLVQPGGSLRLSCAASGFNIYYNYIHWVRQAPGKGLEWVAEFSPYSGSTYYADSVKGRFTISADTSKNTAYLQMNSLRAEDTAVYYCARSAAIVDWYDYFKGFDYWGQGTLVTVSS VL: DIQMTQSPSSLSASVGDRVTITCRASQSVSSAVAWYQQKPGKAPKLLIYSASSLYSGVPSRFSGSRSGTDFTLTISSLQPEDFATYYCQQYGSNLYTFGQGTKVEIK	1.84 nM
VH W100aH (antibody, V domains shown) VH: EVQLVESGGGLVQPGGSLRLSCAASGFNIYYNYIHWVRQAPGKGLEWVAEFSPYSGSTYYADSVKGRFTISADTSKNTAYLQMNSLRAEDTAVYYCARSAAIVDHYDYFKGFDYWGQGTLVTVSS VL: DIQMTQSPSSLSASVGDRVTITCRASQSVSSAVAWYQQKPGKAPKLLIYSASSLYSGVPSRFSGSRSGTDFTLTISSLQPEDFATYYCQQYGSYLYTFGQGTKVEIK	41.7 nM
VL Y94T (antibody, V domains shown) VH: EVQLVESGGGLVQPGGSLRLSCAASGFNIYYNYIHWVRQAPGKGLEWVAEFSPYSGSTYYADSVKGRFTISADTSKNTAYLQMNSLRAEDTAVYYCARSAAIVDWYDYFKGFDYWGQGTLVTVSS VL: DIQMTQSPSSLSASVGDRVTITCRASQSVSSAVAWYQQKPGKAPKLLIYSASSLYSGVPSRFSGSRSGTDFTLTISSLQPEDFATYYCQQYGSTLYTFGQGTKVEIK	2.71 nM
VH Y30E (antibody, V domains shown) VH: EVQLVESGGGLVQPGGSLRLSCAASGFNIEYNYIHWVRQAPGKGLEWVAEFSPYSGSTYYADSVKGRFTISADTSKNTAYLQMNSLRAEDTAVYYCARSAAIVDWYDYFKGFDYWGQGTLVTVSS VL: DIQMTQSPSSLSASVGDRVTITCRASQSVSSAVAWYQQKPGKAPKLLIYSASSLYSGVPSRFSGSRSGTDFTLTISSLQPEDFATYYCQQYGSYLYTFGQGTKVEIK	45.1 nM
VL Y94A (antibody, V domains shown) VH: EVQLVESGGGLVQPGGSLRLSCAASGFNIYYNYIHWVRQAPGKGLEWVAEFSPYSGSTYYADSVKGRFTISADTSKNTAYLQMNSLRAEDTAVYYCARSAAIVDWYDYFKGFDYWGQGTLVTVSS VL: DIQMTQSPSSLSASVGDRVTITCRASQSVSSAVAWYQQKPGKAPKLLIYSASSLYSGVPSRFSGSRSGTDFTLTISSLQPEDFATYYCQQYGSALYTFGQGTKVEIK	2.64 nM
